± gives the uncertainty stated by the source.
B1: COUP transcription factor 1, residues 83 to 159; numbered along this chain, P10589 (parent)
chain: HIECVVCGDKSSGKHYGQFTCEGCKSFFKRSVRRNLTYTCRANRNCPIDQHHRNQCQYCRLKKCLKVGMRREAVQRG

Variants of: B1
Experiment: abundance fitness (aPCA) (normalised: wild type 0, dead -1); higher = more abundant; growth selection in yeast, the domain comes from the species named
Conditions: Homo sapiens

Row | Variant | abundance fitness
1 | S26H | -0.137 ± 0.19
2 | S26L | -0.035 ± 0.11
3 | S26C | -0.127 ± 0.12
4 | S26T | 0.139 ± 0.1
5 | S26W | 0.014 ± 0.093
6 | S26P | -0.812 ± 0.34
7 | S26I | -0.611 ± 0.43
8 | S26A | -0.184 ± 0.1
9 | S26K | 0.321 ± 0.15
10 | S26F | -0.275 ± 0.23
11 | S26R | -0.019 ± 0.074
12 | V32K | -0.181 ± 0.14
13 | V32R | -0.66 ± 0.081
14 | V32Q | -0.299 ± 0.1
15 | V32P | -0.393 ± 0.13
16 | V32S | -0.336 ± 0.067
17 | V32D | -0.265 ± 0.1
18 | V32W | -0.784 ± 0.12
19 | V32M | 0.072 ± 0.074
20 | V32Y | -0.062 ± 0.17
21 | V32I | -0.089 ± 0.11
22 | V32G | -0.378 ± 0.047
23 | V32L | -0.26 ± 0.066
24 | V32A | -0.151 ± 0.04

Row | Variant | abundance fitness
25 | V32F | -0.068 ± 0.16
26 | V32N | -0.196 ± 0.25
27 | V32E | -0.072 ± 0.067
28 | V32C | -0.798 ± 0.2
29 | V32H | 0.19 ± 0.14
30 | F28M | -0.591 ± 0.15
31 | F28C | -0.757 ± 0.21
32 | F28Q | -0.809 ± 0.36
33 | F28K | -0.419 ± 0.19
34 | F28A | -0.809 ± 0.11
35 | F28Y | -0.42 ± 0.19
36 | F28W | -0.069 ± 0.058
37 | F28V | -0.807 ± 0.098
38 | F28E | -0.539 ± 0.093
39 | F28D | -0.991 ± 0.33
40 | F28P | -1.04 ± 0.33
41 | F28L | -0.754 ± 0.14
42 | F28S | -0.813 ± 0.14
43 | F28G | -1.05 ± 0.1
44 | F28R | -0.698 ± 0.073
45 | F28T | -1.2 ± 0.34
46 | K25D | 0.183 ± 0.075
47 | K25E | 0.183 ± 0.047
48 | K25W | 0.003 ± 0.044

Row | Variant | abundance fitness
49 | K25G | 0.064 ± 0.034
50 | K25T | 0.011 ± 0.059
51 | K25R | 0.095 ± 0.04
52 | K25C | 0.087 ± 0.074
53 | K25H | 0.283 ± 0.1
54 | K25L | -0.031 ± 0.058
55 | K25F | 0.168 ± 0.086
56 | K25M | 0.177 ± 0.059
57 | K25V | 0.025 ± 0.045
58 | K25S | 0.067 ± 0.051
59 | K25A | 0.09 ± 0.043
60 | K25P | -0.492 ± 0.14
61 | F27N | -0.222 ± 0.29
62 | F27K | -0.968 ± 0.33
63 | F27V | -0.692 ± 0.096
64 | F27L | -0.819 ± 0.15
65 | F27T | -1.1 ± 0.26
66 | F27A | -0.812 ± 0.11
67 | F27H | -0.634 ± 0.39
68 | F27D | -0.783 ± 0.28
69 | F27R | -0.515 ± 0.071
70 | F27E | -0.519 ± 0.15
71 | F27W | -0.733 ± 0.15
72 | F27G | -0.83 ± 0.093

Row | Variant | abundance fitness
73 | F27Y | -0.61 ± 0.35
74 | F27Q | -0.739 ± 0.2
75 | F27S | -0.815 ± 0.17
76 | F27I | -0.86 ± 0.44
77 | R34P | -0.308 ± 0.2
78 | R34S | -0.193 ± 0.098
79 | R34C | -0.759 ± 0.34
80 | R34Q | 0.018 ± 0.11
81 | R34T | -0.295 ± 0.15
82 | R34L | -0.161 ± 0.09
83 | R34V | -0.137 ± 0.085
84 | R34Y | -0.263 ± 0.22
85 | R34G | 0.131 ± 0.048
86 | R34I | 0.091 ± 0.16
87 | R34A | 0.268 ± 0.066
88 | R34W | -0.25 ± 0.085
89 | R34M | -0.002 ± 0.1
90 | R30Q | -0.411 ± 0.26
91 | R30E | 0.054 ± 0.13
92 | R30S | -0.157 ± 0.23
93 | R30N | -0.028 ± 0.22
94 | R30C | 0.067 ± 0.31
95 | R30H | -0.359 ± 0.49
96 | R30G | -0.079 ± 0.066

Row | Variant | abundance fitness
97 | R30A | -0.091 ± 0.18
98 | R30K | 0.389 ± 0.26
99 | R30V | 0.08 ± 0.12
100 | R30L | -0.195 ± 0.12
101 | R30Y | -0.186 ± 0.47
102 | T37Q | -0.104 ± 0.078
103 | T37R | 0.092 ± 0.05
104 | T37V | 0.044 ± 0.051
105 | T37C | -0.048 ± 0.081
106 | T37A | 0.085 ± 0.051
107 | T37S | -0.009 ± 0.047
108 | T37H | 0.133 ± 0.072
109 | T37I | -0.038 ± 0.061
110 | T37E | 0.178 ± 0.069
111 | T37W | 0.138 ± 0.064
112 | T37K | 0.139 ± 0.054
113 | T37Y | -0.254 ± 0.1
114 | T37N | 0.081 ± 0.057
115 | T37M | -0.215 ± 0.082
116 | T37L | -0.057 ± 0.052
117 | T37G | 0.06 ± 0.054
118 | T37F | -0.101 ± 0.12
119 | N35S | -0.508 ± 0.24
120 | N35C | 0.538 ± 0.32

Row | Variant | abundance fitness
121 | N35K | 0.085 ± 0.097
122 | N35W | -0.38 ± 0.16
123 | N35G | -0.003 ± 0.062
124 | N35R | -0.196 ± 0.087
125 | N35E | 0.161 ± 0.093
126 | N35T | -0.346 ± 0.15
127 | N35H | -0.256 ± 0.26
128 | N35L | -0.513 ± 0.14
129 | N35P | -0.402 ± 0.2
130 | N35M | -0.118 ± 0.12
131 | N35V | -0.104 ± 0.072
132 | G23L | -0.544 ± 0.36
133 | G23R | -0.081 ± 0.079
134 | G23D | 0.418 ± 0.14
135 | G23K | -0.044 ± 0.19
136 | G23Y | 0.152 ± 0.45
137 | G23T | -0.009 ± 0.21
138 | G23W | 0.189 ± 0.088
139 | G23Q | 0.031 ± 0.12
140 | G23H | 0.287 ± 0.17
141 | G23A | -0.153 ± 0.14
142 | G23V | -0.338 ± 0.11
143 | G23C | 0.001 ± 0.36
144 | G23S | -0.174 ± 0.23

Row | Variant | abundance fitness
145 | G23F | 0.044 ± 0.43
146 | L36M | -0.085 ± 0.095
147 | L36R | -0.082 ± 0.05
148 | L36S | -0.147 ± 0.083
149 | L36V | 0.007 ± 0.05
150 | L36E | 0.162 ± 0.07
151 | L36A | -0.064 ± 0.06
152 | L36C | -0.206 ± 0.14
153 | L36P | 0.03 ± 0.089
154 | L36K | 0.126 ± 0.11
155 | L36D | -0.232 ± 0.22
156 | L36H | 0.095 ± 0.38
157 | L36Q | -0.113 ± 0.1
158 | L36G | -0.17 ± 0.052
159 | C40P | -0.941 ± 0.17
160 | C40D | -0.51 ± 0.15
161 | C40L | -0.786 ± 0.086
162 | C40K | -0.384 ± 0.1
163 | C40E | -0.683 ± 0.093
164 | C40A | -0.885 ± 0.094
165 | C40G | -0.731 ± 0.064
166 | C40H | -1.21 ± 0.33
167 | C40I | -0.496 ± 0.32
